What follows are substances tested against ePHF tau (tau in the form of paired helical filaments, immobilized on plate) (UniProt P10636) (assay: ePHF tau ELISA; […]; rep 1).
Chain of ePHF tau (tau in the form of paired helical filaments, immobilized on plate) (P10636 other isoform, or with tags, fused parts or gaps limits assumed): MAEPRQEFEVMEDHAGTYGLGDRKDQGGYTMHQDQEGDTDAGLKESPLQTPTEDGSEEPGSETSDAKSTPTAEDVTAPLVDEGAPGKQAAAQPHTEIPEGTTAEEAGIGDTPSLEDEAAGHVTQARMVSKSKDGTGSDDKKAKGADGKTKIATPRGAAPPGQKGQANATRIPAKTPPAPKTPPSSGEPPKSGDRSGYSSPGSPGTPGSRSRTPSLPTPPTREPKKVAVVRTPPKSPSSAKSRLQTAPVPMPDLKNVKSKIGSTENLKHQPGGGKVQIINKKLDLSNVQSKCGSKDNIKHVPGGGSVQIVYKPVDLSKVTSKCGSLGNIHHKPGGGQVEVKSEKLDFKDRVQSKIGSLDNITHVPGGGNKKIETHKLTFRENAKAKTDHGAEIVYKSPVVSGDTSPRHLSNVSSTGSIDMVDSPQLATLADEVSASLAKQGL

OD450	Substance
0.1	2G9.F10 (BioLegend monoclonal murine anti-tau, 157-168; cat #824601) (antibody)
0.7	43D (BioLegend monoclonal murine anti-tau, 1-100; cat #816601) (antibody)
0.2	PHF-6 (BioLegend monoclonal murine anti-tau phospho Th231; cat #828901) (antibody)
0	PHF-13 (BioLegend monoclonal murine anti-tau phospho Ser396; cat #829001) (antibody)

The substances below were run against ePHF tau (tau in the form of paired helical filaments, immobilized on plate) (UniProt P10636) (assay: ePHF tau ELISA; […]; rep 2).

OD450	Substance
0.1	2G9.F10 (BioLegend monoclonal murine anti-tau, 157-168; cat #824601) (antibody)
0.8	43D (BioLegend monoclonal murine anti-tau, 1-100; cat #816601) (antibody)
0.2	PHF-6 (BioLegend monoclonal murine anti-tau phospho Th231; cat #828901) (antibody)
0	PHF-13 (BioLegend monoclonal murine anti-tau phospho Ser396; cat #829001) (antibody)

Each substance was assayed against ePHF tau (tau in the form of paired helical filaments, immobilized on plate) (UniProt P10636) (assay: ePHF tau ELISA; 0.5 ng/mL; rep 1).

OD450	Substance
0	2G9.F10 (BioLegend monoclonal murine anti-tau, 157-168; cat #824601) (antibody)
0.3	43D (BioLegend monoclonal murine anti-tau, 1-100; cat #816601) (antibody)
0.1	PHF-6 (BioLegend monoclonal murine anti-tau phospho Th231; cat #828901) (antibody)
0	PHF-13 (BioLegend monoclonal murine anti-tau phospho Ser396; cat #829001) (antibody)

Each substance was assayed against ePHF tau (tau in the form of paired helical filaments, immobilized on plate) (UniProt P10636) (assay: ePHF tau ELISA; 0.5 ng/mL; rep 2).

OD450	Substance
0	2G9.F10 (BioLegend monoclonal murine anti-tau, 157-168; cat #824601) (antibody)
0.3	43D (BioLegend monoclonal murine anti-tau, 1-100; cat #816601) (antibody)
0	PHF-6 (BioLegend monoclonal murine anti-tau phospho Th231; cat #828901) (antibody)
0	PHF-13 (BioLegend monoclonal murine anti-tau phospho Ser396; cat #829001) (antibody)

These substances were tested against ePHF tau (tau in the form of paired helical filaments, immobilized on plate) (UniProt P10636) (assay: ePHF tau ELISA; 4.1 ng/mL; rep 1).

OD450	Substance
0.3	2G9.F10 (BioLegend monoclonal murine anti-tau, 157-168; cat #824601) (antibody)
1.7	43D (BioLegend monoclonal murine anti-tau, 1-100; cat #816601) (antibody)
0.4	PHF-6 (BioLegend monoclonal murine anti-tau phospho Th231; cat #828901) (antibody)
0.1	PHF-13 (BioLegend monoclonal murine anti-tau phospho Ser396; cat #829001) (antibody)

What follows are substances tested against ePHF tau (tau in the form of paired helical filaments, immobilized on plate) (UniProt P10636) (assay: ePHF tau ELISA; 4.1 ng/mL; rep 2).

OD450	Substance
0.3	2G9.F10 (BioLegend monoclonal murine anti-tau, 157-168; cat #824601) (antibody)
1.9	43D (BioLegend monoclonal murine anti-tau, 1-100; cat #816601) (antibody)
0.5	PHF-6 (BioLegend monoclonal murine anti-tau phospho Th231; cat #828901) (antibody)
0	PHF-13 (BioLegend monoclonal murine anti-tau phospho Ser396; cat #829001) (antibody)

What follows are substances tested against ePHF tau (tau in the form of paired helical filaments, immobilized on plate) (UniProt P10636) (assay: ePHF tau ELISA; 12.3 ng/mL; rep 1).

OD450	Substance
0.7	2G9.F10 (BioLegend monoclonal murine anti-tau, 157-168; cat #824601) (antibody)
3	43D (BioLegend monoclonal murine anti-tau, 1-100; cat #816601) (antibody)
1.1	PHF-6 (BioLegend monoclonal murine anti-tau phospho Th231; cat #828901) (antibody)
0.1	PHF-13 (BioLegend monoclonal murine anti-tau phospho Ser396; cat #829001) (antibody)

The substances below were run against ePHF tau (tau in the form of paired helical filaments, immobilized on plate) (UniProt P10636) (assay: ePHF tau ELISA; 12.3 ng/mL; rep 2).

OD450	Substance
0.9	2G9.F10 (BioLegend monoclonal murine anti-tau, 157-168; cat #824601) (antibody)
3.1	43D (BioLegend monoclonal murine anti-tau, 1-100; cat #816601) (antibody)
1.3	PHF-6 (BioLegend monoclonal murine anti-tau phospho Th231; cat #828901) (antibody)
0.1	PHF-13 (BioLegend monoclonal murine anti-tau phospho Ser396; cat #829001) (antibody)

What follows are substances tested against ePHF tau (tau in the form of paired helical filaments, immobilized on plate) (UniProt P10636) (assay: ePHF tau ELISA; 37.0 ng/mL; rep 1).

OD450	Substance
1.6	2G9.F10 (BioLegend monoclonal murine anti-tau, 157-168; cat #824601) (antibody)
3.2	43D (BioLegend monoclonal murine anti-tau, 1-100; cat #816601) (antibody)
1.9	PHF-6 (BioLegend monoclonal murine anti-tau phospho Th231; cat #828901) (antibody)
0.3	PHF-13 (BioLegend monoclonal murine anti-tau phospho Ser396; cat #829001) (antibody)

Each substance was assayed against ePHF tau (tau in the form of paired helical filaments, immobilized on plate) (UniProt P10636) (assay: ePHF tau ELISA; 37.0 ng/mL; rep 2).

OD450	Substance
2	2G9.F10 (BioLegend monoclonal murine anti-tau, 157-168; cat #824601) (antibody)
3.2	43D (BioLegend monoclonal murine anti-tau, 1-100; cat #816601) (antibody)
2.3	PHF-6 (BioLegend monoclonal murine anti-tau phospho Th231; cat #828901) (antibody)
0.3	PHF-13 (BioLegend monoclonal murine anti-tau phospho Ser396; cat #829001) (antibody)

These substances were tested against ePHF tau (tau in the form of paired helical filaments, immobilized on plate) (UniProt P10636) (assay: ePHF tau ELISA; 111.1 ng/mL; rep 1).

OD450	Substance
2.4	2G9.F10 (BioLegend monoclonal murine anti-tau, 157-168; cat #824601) (antibody)
3.2	43D (BioLegend monoclonal murine anti-tau, 1-100; cat #816601) (antibody)
2.7	PHF-6 (BioLegend monoclonal murine anti-tau phospho Th231; cat #828901) (antibody)
0.6	PHF-13 (BioLegend monoclonal murine anti-tau phospho Ser396; cat #829001) (antibody)

Each substance was assayed against ePHF tau (tau in the form of paired helical filaments, immobilized on plate) (UniProt P10636) (assay: ePHF tau ELISA; 111.1 ng/mL; rep 2).

OD450	Substance
2.8	2G9.F10 (BioLegend monoclonal murine anti-tau, 157-168; cat #824601) (antibody)
3.2	43D (BioLegend monoclonal murine anti-tau, 1-100; cat #816601) (antibody)
2.9	PHF-6 (BioLegend monoclonal murine anti-tau phospho Th231; cat #828901) (antibody)
0.7	PHF-13 (BioLegend monoclonal murine anti-tau phospho Ser396; cat #829001) (antibody)

Each substance was assayed against ePHF tau (tau in the form of paired helical filaments, immobilized on plate) (UniProt P10636) (assay: ePHF tau ELISA; 333.3 ng/mL; rep 1).

OD450	Substance
2.9	2G9.F10 (BioLegend monoclonal murine anti-tau, 157-168; cat #824601) (antibody)
3.2	43D (BioLegend monoclonal murine anti-tau, 1-100; cat #816601) (antibody)
3	PHF-6 (BioLegend monoclonal murine anti-tau phospho Th231; cat #828901) (antibody)
1.2	PHF-13 (BioLegend monoclonal murine anti-tau phospho Ser396; cat #829001) (antibody)

These substances were tested against ePHF tau (tau in the form of paired helical filaments, immobilized on plate) (UniProt P10636) (assay: ePHF tau ELISA; 333.3 ng/mL; rep 2).

OD450	Substance
3	2G9.F10 (BioLegend monoclonal murine anti-tau, 157-168; cat #824601) (antibody)
3.1	43D (BioLegend monoclonal murine anti-tau, 1-100; cat #816601) (antibody)
3.1	PHF-6 (BioLegend monoclonal murine anti-tau phospho Th231; cat #828901) (antibody)
1.2	PHF-13 (BioLegend monoclonal murine anti-tau phospho Ser396; cat #829001) (antibody)

What follows are substances tested against ePHF tau (tau in the form of paired helical filaments, immobilized on plate) (UniProt P10636) (assay: ePHF tau ELISA; 1000.0 ng/mL; rep 1).

OD450	Substance
3.1	2G9.F10 (BioLegend monoclonal murine anti-tau, 157-168; cat #824601) (antibody)
3.2	43D (BioLegend monoclonal murine anti-tau, 1-100; cat #816601) (antibody)
3.2	PHF-6 (BioLegend monoclonal murine anti-tau phospho Th231; cat #828901) (antibody)
1.9	PHF-13 (BioLegend monoclonal murine anti-tau phospho Ser396; cat #829001) (antibody)

What follows are substances tested against ePHF tau (tau in the form of paired helical filaments, immobilized on plate) (UniProt P10636) (assay: ePHF tau ELISA; 1000.0 ng/mL; rep 2).

OD450	Substance
3.1	2G9.F10 (BioLegend monoclonal murine anti-tau, 157-168; cat #824601) (antibody)
3.1	43D (BioLegend monoclonal murine anti-tau, 1-100; cat #816601) (antibody)
3.1	PHF-6 (BioLegend monoclonal murine anti-tau phospho Th231; cat #828901) (antibody)
2	PHF-13 (BioLegend monoclonal murine anti-tau phospho Ser396; cat #829001) (antibody)

— patent US20220339270A1
